Experimental data published in paper PMC4503747, “The Gcn2 Regulator Yih1 Interacts with the Cyclin Dependent Kinase Cdc28 and Promotes Cell Cycle Progression through G2/M in Budding Yeast” (PLoS ONE, 2015).

Target: T1, GST-Yih1*H2 (E87A and D90A in helix H2 of the RWD domain) (S. cerevisiae, UniProt P25637 1-258, E87A | D90A)
T1 construct: Yih1, S. cerevisiae, with alanine substitutions of Glu-87 and Asp-90;; source: S. cerevisiae yih1Δ strain MSY-Y2, galactose-inducible promoter, in whole cell extract
T1 sequence (looked up): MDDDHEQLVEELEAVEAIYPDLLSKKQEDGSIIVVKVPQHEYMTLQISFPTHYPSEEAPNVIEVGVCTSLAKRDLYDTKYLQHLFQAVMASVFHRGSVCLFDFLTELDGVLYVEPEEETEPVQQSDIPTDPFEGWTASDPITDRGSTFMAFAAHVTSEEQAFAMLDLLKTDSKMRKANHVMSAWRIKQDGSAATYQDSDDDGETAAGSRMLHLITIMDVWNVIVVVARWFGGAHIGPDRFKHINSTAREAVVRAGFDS
Test: pull-down; in vivo GST pull-down: GST fusions overexpressed in yeast from a galactose-inducible promoter (yih1Δ strains; gcn1Δ strain H2556 for the fragments; also cells arrested in G1 with α-factor and released), WCE (1-2 mg) on glutathione beads, immunoblot for endogenous proteins
Conditions: partners not purified

B1: Cdc28 (endogenous, yeast whole cell extract) (natural protein)
chain: not shown
notes: Cdc28, cyclin-dependent kinase of S. cerevisiae, endogenous; In the extract Cdc28 may be in complexes with cyclins and other regulators; also called endogenous Cdc28; native Cdc28; source: endogenous, S. cerevisiae whole cell extract
fold increase of co-precipitated Cdc28 against wild type GST-Yih1: ~5 fold
